Results as given in patent publication US20210032365A1 (Chugai, published 2021).
Changes are numbered by the printed parent chain.

T1: human C1s (human, UniProt P09871 16-688)
T1 construct: also called hC1s; serum-derived human C1s (CompTech)
T1 sequence: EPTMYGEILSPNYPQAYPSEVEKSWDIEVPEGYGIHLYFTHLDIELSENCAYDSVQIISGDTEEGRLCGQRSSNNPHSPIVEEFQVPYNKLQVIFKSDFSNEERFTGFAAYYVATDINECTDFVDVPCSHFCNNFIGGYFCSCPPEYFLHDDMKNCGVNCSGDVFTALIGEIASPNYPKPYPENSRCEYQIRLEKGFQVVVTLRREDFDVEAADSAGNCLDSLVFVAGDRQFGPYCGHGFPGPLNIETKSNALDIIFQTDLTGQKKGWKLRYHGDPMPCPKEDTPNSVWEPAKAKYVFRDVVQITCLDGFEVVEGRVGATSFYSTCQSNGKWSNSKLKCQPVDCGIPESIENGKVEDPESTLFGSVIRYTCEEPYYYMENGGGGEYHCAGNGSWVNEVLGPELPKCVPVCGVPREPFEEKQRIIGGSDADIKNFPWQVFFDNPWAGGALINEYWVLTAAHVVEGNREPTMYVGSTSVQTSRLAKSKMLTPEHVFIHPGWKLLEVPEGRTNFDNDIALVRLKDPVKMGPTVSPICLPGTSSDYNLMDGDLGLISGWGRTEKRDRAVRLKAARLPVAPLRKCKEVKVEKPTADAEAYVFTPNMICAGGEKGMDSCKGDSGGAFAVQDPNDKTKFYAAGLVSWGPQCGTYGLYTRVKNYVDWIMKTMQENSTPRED

B1: C1_IPN92H0038-SG4GK/IPN009VK3-SK1 (antibody, human IgG4 S228P, kappa, name in Kabat numbering, V domains shown)
VH: EVMLVESGGGLVKPGGSLRLSCAASGFTFSNYAMSWVRQAPGKGLEWVATISSGGSHTYYLDSVKHRFTISRDNSKDTLYLQMNSLRAEDTALYYCARLFTGHAMDYWGQGTLVTVSS
VL: QIVLTQSPATLSLSPGERATLSCTASSSVSSSYLHWYQQKPGKAPKLWIYSTSNLASGVPSRFSGSGSGTDYTLTISSLQPEDFATYYCHQYYRLPPITFGQGTKLEIKR
notes: also called IPN92H0038/IPN009VK3
B2: C1_IPN92H0048-SG4GK/IPN93L0024-SK1 (antibody, human IgG4 S228P, kappa, name in Kabat numbering, V domains shown)
VH: B1 VH with F27H, H66G
VL: B1 VL with P96H
notes: also called IPN92H0048/IPN93L0024
B3: C1_IPN92H0038-SG4GK/IPN93L0024-SK1 (antibody, human IgG4 S228P, kappa, name in Kabat numbering)
heavy: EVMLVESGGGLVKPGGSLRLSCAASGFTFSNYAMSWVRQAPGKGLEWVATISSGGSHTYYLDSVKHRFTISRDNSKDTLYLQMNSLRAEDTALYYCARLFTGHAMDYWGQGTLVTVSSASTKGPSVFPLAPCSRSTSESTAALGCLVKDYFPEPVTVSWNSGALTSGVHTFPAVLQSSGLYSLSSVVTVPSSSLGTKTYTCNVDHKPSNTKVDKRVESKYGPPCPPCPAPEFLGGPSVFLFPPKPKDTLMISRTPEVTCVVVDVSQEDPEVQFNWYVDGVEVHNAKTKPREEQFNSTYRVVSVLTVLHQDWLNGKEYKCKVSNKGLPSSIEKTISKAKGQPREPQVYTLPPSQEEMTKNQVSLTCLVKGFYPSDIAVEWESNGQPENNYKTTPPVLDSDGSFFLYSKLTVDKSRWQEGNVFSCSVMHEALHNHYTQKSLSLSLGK
light: QIVLTQSPATLSLSPGERATLSCTASSSVSSSYLHWYQQKPGKAPKLWIYSTSNLASGVPSRFSGSGSGTDYTLTISSLQPEDFATYYCHQYYRLHPITFGQGTKLEIKRTVAAPSVFIFPPSDEQLKSGTASVVCLLNNFYPREAKVQWKVDNALQSGNSQESVTEQDSKDSTYSLSSTLTLSKADYEKHKVYACEVTHQGLSSPVTKSFNRGEC
notes: also called IPN92H0038/IPN93L0024
B4: C1_IPN92H0038-SG4GK/IPN93L0021-SK1 (antibody, human IgG4 S228P, kappa, name in Kabat numbering, V domains shown)
VH: B1 VH
VL: B1 VL with Y93H
notes: also called IPN92H0038/IPN93L0021
B5: C1_IPN92H0038-SG4GK/IPN93L0030-SK1 (antibody, human IgG4 S228P, kappa, name in Kabat numbering, V domains shown)
VH: B1 VH
VL: B1 VL with L95H, P96H
notes: also called IPN92H0038/IPN93L0030
B6: C1_IPN92H0038-SG4GK/IPN93L0023-SK1 (antibody, human IgG4 S228P, kappa, name in Kabat numbering, V domains shown)
VH: B1 VH
VL: B1 VL with L95H
notes: also called IPN92H0038/IPN93L0023
B7: C1_IPN92H0038-SG4GK/IPN93L0029-SK1 (antibody, human IgG4 S228P, kappa, name in Kabat numbering, V domains shown)
VH: B1 VH
VL: B1 VL with Y93H, P96H
notes: also called IPN92H0038/IPN93L0029
B8: C1_IPN92H0038-SG4GK/IPN93L0028-SK1 (antibody, human IgG4 S228P, kappa, name in Kabat numbering, V domains shown)
VH: B1 VH
VL: B1 VL with Y93H, L95H
notes: also called IPN92H0038/IPN93L0028
B9: C1_IPN92H0038-SG4GK/IPN93L0031-SK1 (antibody, human IgG4 S228P, kappa, name in Kabat numbering, V domains shown)
VH: B1 VH
VL: B1 VL with Y93H, L95H, P96H
notes: also called IPN92H0038/IPN93L0031

These binders were tested against T1, human C1s (assay: SPR, Ab captured; pH 5.8, 3 uM Ca).
Method: (§1) All variants were transiently expressed and purified by the method described above. The binding affinity of each histidine-substituted variant at pH 7.4 and pH 5.8 was determined at 37 degrees C. using Biacore T200 instrument (GE Healthcare). Recombinant Protein A/G (Pierce) was immobilized onto all flow cells of a CM4 sensor chip using an amine coupling kit (GE Healthcare). Antibodies and analytes were prepared in 7(+) buffer (20 mM ACES, 150 mM NaCl, 1.2 mM CaCl2, 0.05% Tween 20, 0.005% NaN3, pH 7.4), 5(+) buffer (20 mM ACES, 150 mM NaCl, 1.2 mM CaCl2, 0.05% Tween 20, 0.005% NaN3, pH 5.8), or 5(−) buffer (20 mM ACES, 150 mM NaCl, 3 micro M CaCl2, 0.05% Tween 20, 0.005% NaN3, pH 5.8). Each antibody was captured onto the sensor surface by protein A/G. Antibody capture levels were aimed at 200 resonance unit (RU). Serum-derived human C1s (CompTech) or recombinant C1s prepared in EXAMPLE 1 was injected at 50 nM, followed by dissociation. The sensor surface was regenerated in each cycle with 10 mM Glycine-HCl, pH 1.5. […] The ratio of KD 5.8+ to KD 7.4+(“KD 5+/7+”) and that of KD 5.8− to KD 7.4+(“KD 5−/7+”) were calculated. When the KD 5+/7+ or KD 5−/7+ of a variant is larger than that of the parent antibody IPN009VH2-SG4GK/IPN009VK3-SK1, that variant is considered to be “pH”- or “pH and Ca”-dependent, respectively. When binding response in 5(+) buffer and/or in 5(−) buffer of a variant is much lower than that of IPN09VH2/IPN009VK3, that variant is also considered as “pH”- and/or “pH and Ca”-dependent. Therefore, such mutations are effective to generate “pH”- and/or “pH and Ca”-dependent antibody. To further enhance “pH” and/or “pH and Ca” dependency, a combination of histidine mutations was conducted. Antibodies with combinations of histidine mutations were evaluated using Biacore by the method described above.

Kd [nM]	koff [s⁻¹]	kon [M⁻¹ s⁻¹]	Binder
8.33	0.00538	646000	B1
3.36			B2
5.47			B3
10.2			B4
599	0.00538	8980	B5
12.1			B6
6.62	0.00522	789000	B7
27.3	0.0174	637000	B8
3.9	0.00476	1.22e+06	B9

The binders below were run against T1, human C1s (assay: SPR; KD pH 5.8 3 uM Ca / KD pH 7.4 1.2 mM Ca).
Method: as §1

KD 5(-)/7(+)	Binder
12.3	B1
1.1	B2
3.5	B3
10.6	B4
30.1	B5
6.3	B6
0.9	B7
11.6	B8
0.7	B9

What follows are binders tested against T1, human C1s (assay: SPR, Ab captured; pH 5.8, 1.2 mM Ca).
Method: as §1

Kd [nM]	koff [s⁻¹]	kon [M⁻¹ s⁻¹]	Binder
0.668	0.000463	693000	B1
12.1	0.00637	528000	B2
8.19	0.00418	511000	B3
3.53	0.00224	634000	B4
70.3	0.017	241000	B5
5.33	0.00279	524000	B6
24.2	0.0131	539000	B7
17.7	0.00789	445000	B8
1.24	0.00146	1.18e+06	B9

Each binder was assayed against T1, human C1s (assay: SPR; KD pH 5.8 1.2 mM Ca / KD pH 7.4 1.2 mM Ca).
Method: as §1

KD 5(+)/7(+)	Binder
1	B1
3.9	B2
5.2	B3
3.7	B4
3.5	B5
2.8	B6
3.4	B7
7.5	B8
0.2	B9

The binders below were run against T1, human C1s (assay: SPR, Ab captured; pH 7.4, 1.2 mM Ca).
Method: as §1

Kd [nM]	koff [s⁻¹]	kon [M⁻¹ s⁻¹]	Binder
0.679	0.000282	415000	B1
3.14	0.00082	261000	B2
1.57	0.000596	380000	B3
0.958	0.000477	498000	B4
19.9	0.0111	558000	B5
1.91	0.000808	422000	B6
7.15	0.003	419000	B7
2.36	0.00125	528000	B8
5.22	0.0396	7.59e+06	B9
